Experimental data: patent US20220112296A1 (Chugai, published 2022)
Positions count from the first letter of the chain named.

T1: Human CD3eg linker (human)
T1 construct: CD3 epsilon and gamma subunits joined by a 29-mer linker, C-terminal Flag-tag (in the entry); also called recombinant human CD3
T1 chain: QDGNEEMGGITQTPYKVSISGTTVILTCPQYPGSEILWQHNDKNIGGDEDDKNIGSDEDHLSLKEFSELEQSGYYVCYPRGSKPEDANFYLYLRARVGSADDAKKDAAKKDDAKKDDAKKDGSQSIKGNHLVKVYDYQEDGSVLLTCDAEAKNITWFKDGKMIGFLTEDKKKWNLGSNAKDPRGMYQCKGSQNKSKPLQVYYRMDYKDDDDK

B1: H0868L0581 (antibody, V domains shown)
VH: QVQLVESGGGLVQPGRSLRLSCAASGFKFSNVWMHWVRQAPGKGLEWVAQIKDKYNAYAAYYAPSVKGRFTISRDDSKNSIYLQMNSLKTEDTAVYYCHYVHYASASTLLPAFGVDAWGQGTTVTVSS
VL: DIVMTQSPLSLPVTPGEPASISCQPSQEVVHMNRNTYLHWYQQKPGQAPRLLIYKVSNRFPGVPDRFSGSGSGTDFTLKISRVEAEDVGVYYCAQGTSHPFTFGQGTKLEIK
B2: H1595L0581 (antibody, V domains shown)
VH: B1 VH with V32T, V101I
VL: B1 VL
B3: H1573L0581 (antibody, V domains shown)
VH: B1 VH with M34F, K54Y
VL: B1 VL
B4: H1647L0581 (antibody, V domains shown)
VH: B1 VH with V32T, M34F, K54Y, A57D, F113E
VL: B1 VL
notes: also called H1647L0581 (CD137); Anti-CD137 variant
B5: H0888L0581 (antibody, V domains shown)
VH: B1 VH with Y55W, V101I, V115I
VL: B1 VL
notes: Dual-Ig, captured by anti-human Fc; also called dBBDu183H0888/dBBDu072L0581
B6: H1579L0581 (antibody, V domains shown)
VH: B1 VH with N31H, M34F
VL: B1 VL
B7: H1572L0581 (antibody, V domains shown)
VH: B1 VH with M34F, F113E
VL: B1 VL
B8: H1571L0581 (antibody, V domains shown)
VH: B1 VH with M34F, A60T
VL: B1 VL
B9: H0883 (antibody, V domains shown)
VH: B1 VH with K28T, V32A, Y55G, H99R
VL: B1 VL with P25A, V29L, H99V
notes: also called H0883 (CD3); H883
B10: GPC3 ERY22-dBBDu_186/L096 (bispecific antibody, human IgG1, kappa, L234A L235A, N297A)
heavy 1: DIVMTQSPLSLPVTPGEPASISCRSSQSLVHSNRNTYLHWYQQKPGQAPRLLIYKVSNRFSGVPDRFSGSGSGTDFTLKISRVEAEDVGVYYCSQNTHVPPTFGQGTKLEIKSSASTKGPSVFPLAPSSKSTSGGTAALGCLVKDYFPEPVTVSWNSGALTSGVHTFPAVLQSSGLYSLSSVVTVPSSSLGTQTYICNVNHKPSNTKVDKKVEPKSCDKTHTCPPCPAPEAAGGPSVFLFPPKPKDTLMISRTPEVTCVVVDVSHEDPEVKFNWYVDGVEVHNAKTKPREEQYASTYRVVSVLTVLHQDWLNGKEYKCKVSNKALPAPIEKTISKAKGQPREPQVCTLPPSRDELTKNQVSLWCLVKGFYPSDIAVEWESNGQPENNYKTTPPVLDSDGSFFLYSKLTVDKSRWQQGNVFSCSVMHEALHNHYTQKSLSLSPHHHHHHHH
light 1: QVQLVQSGAEVKKPGASVKVSCKASGYTFTDYEMHWIRQPPGQGLEWIGAIDPKTGDTAYSQKFKGRVTLTADKSTSTAYMELSSLTSEDTAVYYCTRFYSYTYWGQGTLVTVSSASVAAPSVFIFPPSDEQLKSGTASVVCLLNNFYPREAKVQWKVDNALQSGNSQESVTEQDSKDSTYSLSSTLTLSKADYEKHKVYACEVTHQGLSSPVTKSFNRGEC
heavy 2: QVQLVESGGGLVQPGRSLRLSCAASGFTFSNAWMHWVRQAPGKGLEWVAQIKDRSNQYATYYAPSVKGRFTISRDDSKNSIYLQMNSLKTEDTAVYYCHYVHYAQASTVLPAFGVDAWGQGTTVTVSSASTKGPSVFPLAPSSKSTSGGTAALGCLVKDYFPEPVTVSWNSGALTSGVHTFPAVLQSSGLYSLSSVVTVPSSSLGTQTYICNVNHKPSNTKVDKKVEPKSCDKTHTCPPCPAPEAAGGPSVFLFPPKPKDTLMISRTPEVTCVVVDVSHEDPEVKFNWYVDGVEVHNAKTKPREEQYASTYRVVSVLTVLHQDWLNGKEYKCKVSNKALPAPIEKTISKAKGQPREPQVYTLPPSRCELTKNQVSLSCAVKGFYPSDIAVEWESNGQPENNYKTTPPVLDSDGSFFLVSKLTVDKSRWQQGNVFSCSVMHEALHNHYTQKSLSLSPDYKDDDDK
light 2: DIVMTQSPLSLPVTPGEPASISCRTSQELVHINRYIFLHWYQQKPGQAPRLLIYKVYNRFQGVPDRFSGSGSGTDFTLKISRVEAEDVGVYYCAQGTSVPYTFGQGTKLEIKRTVAAPSVFIFPPSDEQLKSGTASVVCLLNNFYPREAKVQWKVDNALQSGNSQESVTEQDSKDSTYSLSSTLTLSKADYEKHKVYACEVTHQGLSSPVTKSFNRGEC
B11: GPC3 ERY22-dBBDu_186/L098 (bispecific antibody, human IgG1, kappa, L234A L235A, N297A)
heavy 1: B10 heavy 1
light 1: B10 light 1
heavy 2: B10 heavy 2
light 2: B10 light 2 with R24A, T25A, Q27E, Y57S, Q61I, T97S, S98Q, Y101F
B12: GPC3 ERY22-dBBDu_189/L116 (bispecific antibody, human IgG1, kappa, L234A L235A, N297A)
heavy 1: B10 heavy 1
light 1: B10 light 1
heavy 2: B10 heavy 2 with V48I, T108S, V109L, A112S
light 2: B10 light 2 with R24S, T25S, I32A, Y35Q, F37Y, Y57A, Q61P, S98Q, Y101F
B13: GPC3 ERY22-dBBDu_186/L106 (bispecific antibody, human IgG1, kappa, L234A L235A, N297A)
heavy 1: B10 heavy 1
light 1: B10 light 1
heavy 2: B10 heavy 2
light 2: B10 light 2 with R24S, Q27E, V30L, Y35F, Y57A, Q61M, T97S, S98Q, Y101F
B14: GPC3 ERY22-dBBDu_189/L119 (bispecific antibody, human IgG1, kappa, L234A L235A, N297A)
heavy 1: B10 heavy 1
light 1: B10 light 1
heavy 2: B10 heavy 2 with V48I, T108S, V109L, A112S
light 2: B10 light 2 with R24T, T25A, Y35F, Y57S, Q61I, T97S, S98Q, Y101F

Biological target: T2, Human CD137 ECD (human)
T2 construct: C-terminal His-tag and biotin acceptor peptide are in the entry; also called human CD137 extracellular domain; recombinant human CD137
Assay: SPR Biacore T200, 37 C, Ab captured
Procedure: (§1) Anti-human Fc (GE Healthcare) was immobilized onto all flow cells of a CM4 sensor chip using amine coupling kit (GE Healthcare). […] All antibodies and analytes were prepared in ACES pH 7.4 containing 20 mM ACES, 150 mM NaCl, 0.05% Tween 20, 0.005% NaN3. Sensor surface was regenerated each cycle with 3M MgCl2.

T2 sequence (chain, as listed by the source limits assumed): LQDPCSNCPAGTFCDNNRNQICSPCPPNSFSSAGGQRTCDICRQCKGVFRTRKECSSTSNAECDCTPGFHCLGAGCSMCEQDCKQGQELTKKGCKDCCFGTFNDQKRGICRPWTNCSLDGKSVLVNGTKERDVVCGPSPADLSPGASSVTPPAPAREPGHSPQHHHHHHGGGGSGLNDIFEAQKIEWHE

Binder | Kd
B1 | 108 nM
B2 | 195 nM
B3 | 70.6 nM
B4 | 60.5 nM
B5 | 208 nM
B6 | 275 nM
B7 | 52.1 nM
B8 | 85 nM

Biological target: T1, Human CD3eg linker
Assay: SPR Biacore T200, 25 C, Ab captured
Procedure: as §1

Binder | Kd
B1 | 173 nM
B9 | 110 nM
B2 | 57 nM
B3 | 156 nM
B5 | 20.2 nM
B6 | 273 nM
B7 | 286 nM
B8 | 123 nM

Biological target: human CD137 (4-1BB) on cells (human, UniProt Q07011 24-255)
Assay: cell-based or functional assay

Chain of human CD137 (4-1BB) on cells (Q07011 24-255): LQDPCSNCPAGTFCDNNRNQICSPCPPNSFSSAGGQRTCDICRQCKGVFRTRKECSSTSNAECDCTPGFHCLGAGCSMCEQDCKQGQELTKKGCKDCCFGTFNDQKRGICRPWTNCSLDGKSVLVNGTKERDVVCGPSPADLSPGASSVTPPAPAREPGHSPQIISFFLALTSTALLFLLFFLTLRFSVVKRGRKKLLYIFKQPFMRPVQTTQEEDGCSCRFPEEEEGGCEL

Binder | Agonistic activity compared to B, 6 ug/mL | Agonistic activity compared to B, 30 ug/mL | Agonistic activity compared to Ctrl, 6 ug/mL | Agonistic activity compared to Ctrl, 30 ug/mL | hIL-6 (pg/mL), 6 ug/mL antibody | hIL-6 (pg/mL), 30 ug/mL antibody
B10 | 19% | 24.2% | 66.1% | 91.7% | 1680 pg/mL | 1740 pg/mL
B11 | 13.9% | 24.6% | 48.3% | 93.5% | 1500 pg/mL | 1750 pg/mL
B12 | 8.28% | 19.2% | 28.7% | 72.9% | 1300 pg/mL | 1570 pg/mL
B13 | 13.2% | 19.4% | 45.8% | 73.6% | 1480 pg/mL | 1570 pg/mL
B14 | 6.92% | 20.4% | 24% | 77.3% | 1260 pg/mL | 1610 pg/mL
